# Laboratory results published in IntAct's records for PubMed 31515488.
# B1: Thioredoxin-like protein 4B (Homo sapiens), Q9NX01 (parent)
# chain: MSFLLPKLTSKKEVDQAIKSTAEKVLVLRFGRDEDPVCLQLDDILSKTSSDLSKMAAIYLVDVDQTAVYTQYFDISYIPSTVFFFNGQHMKVDYGSPDHTKFVGSFKTKQDFIDLIEVIYRGAMRGKLIVQSPIDPKNIPKYDLLYQDI
# B2: Leucine-rich repeat-containing protein 45 (Homo sapiens), Q96CN5 (parent)
# chain: MEEFRRSYSRLCRESGAEPQEAVLQQLHQLPRGRLDLATQSLTVETCRALGKLLPRETLCTELVLSDCMLSEEGATLLLRGLCANTVLRFLDLKGNNLRAAGAEALGKLLQQNKSIQSLTLEWNSLGTWDDAFATFCGGLAANGALQRLDLRNNQISHKGAEELALALKGNTTLQQLDLRWNNVGLLGGRALMNCLPSNRTLWRLDLAGNNIPGDVLRAVEQAMGHSQDRLTTFQENQARTHVLSKEVQHLREEKSKQFLDLMETIDKQREEMAKSSRASAARVGQLQEALNERHSIINALKAKLQMTEAALALSEQKAQDLGELLATAEQEQLSLSQRQAKELKLEQQEAAERESKLLRDLSAANEKNLLLQNQVDELERKFRCQQEQLFQTRQEMTSMSAELKMRAIQAEERLDMEKRRCRQSLEDSESLRIKEVEHMTRHLEESEKAMQERVQRLEAARLSLEEELSRVKAAALSERGQAEEELIKAKSQARLEEQQRLAHLEDKLRLLAQARDEAQGACLQQKQVVAEAQTRVSQLGLQVEGLRRRLEELQQELSLKDQERVAEVSRVRVELQEQNGRLQAELAAQEALREKAAALERQLKVMASDHREALLDRESENASLREKLRLREAEIARIRDEEAQRASFLQNAVLAYVQASPVRTLSPPK
# partner: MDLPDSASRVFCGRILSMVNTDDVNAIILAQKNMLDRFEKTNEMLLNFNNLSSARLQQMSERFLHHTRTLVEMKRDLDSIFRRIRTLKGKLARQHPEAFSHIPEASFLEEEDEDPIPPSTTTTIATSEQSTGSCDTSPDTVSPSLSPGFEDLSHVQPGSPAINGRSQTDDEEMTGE
# B3: Polymerase delta-interacting protein 3 (Homo sapiens), Q9BY77 (parent)
# chain: MADISLDELIRKRGAAAKGRLNARPGVGGVRSRVGIQQGLLSQSTRTATFQQRFDARQKIGLSDARLKLGVKDAREKLLQKDARFRIKGKVQDAREMLNSRKQQTTVPQKPRQVADAREKISLKRSSPAAFINPPIGTVTPALKLTKTIQVPQQKAMAPLHPHPAGMRINVVNNHQAKQNLYDLDEDDDGIASVPTKQMKFAASGGFLHHMAGLSSSKLSMSKALPLTKVVQNDAYTAPALPSSIRTKALTNMSRTLVNKEEPPKELPAAEPVLSPLEGTKMTVNNLHPRVTEEDIVELFCVCGALKRARLVHPGVAEVVFVKKDDAITAYKKYNNRCLDGQPMKCNLHMNGNVITSDQPILLRLSDSPSMKKESELPRRVNSASSSNPPAEVDPDTILKALFKSSGASVTTQPTEFKIKL
# partner: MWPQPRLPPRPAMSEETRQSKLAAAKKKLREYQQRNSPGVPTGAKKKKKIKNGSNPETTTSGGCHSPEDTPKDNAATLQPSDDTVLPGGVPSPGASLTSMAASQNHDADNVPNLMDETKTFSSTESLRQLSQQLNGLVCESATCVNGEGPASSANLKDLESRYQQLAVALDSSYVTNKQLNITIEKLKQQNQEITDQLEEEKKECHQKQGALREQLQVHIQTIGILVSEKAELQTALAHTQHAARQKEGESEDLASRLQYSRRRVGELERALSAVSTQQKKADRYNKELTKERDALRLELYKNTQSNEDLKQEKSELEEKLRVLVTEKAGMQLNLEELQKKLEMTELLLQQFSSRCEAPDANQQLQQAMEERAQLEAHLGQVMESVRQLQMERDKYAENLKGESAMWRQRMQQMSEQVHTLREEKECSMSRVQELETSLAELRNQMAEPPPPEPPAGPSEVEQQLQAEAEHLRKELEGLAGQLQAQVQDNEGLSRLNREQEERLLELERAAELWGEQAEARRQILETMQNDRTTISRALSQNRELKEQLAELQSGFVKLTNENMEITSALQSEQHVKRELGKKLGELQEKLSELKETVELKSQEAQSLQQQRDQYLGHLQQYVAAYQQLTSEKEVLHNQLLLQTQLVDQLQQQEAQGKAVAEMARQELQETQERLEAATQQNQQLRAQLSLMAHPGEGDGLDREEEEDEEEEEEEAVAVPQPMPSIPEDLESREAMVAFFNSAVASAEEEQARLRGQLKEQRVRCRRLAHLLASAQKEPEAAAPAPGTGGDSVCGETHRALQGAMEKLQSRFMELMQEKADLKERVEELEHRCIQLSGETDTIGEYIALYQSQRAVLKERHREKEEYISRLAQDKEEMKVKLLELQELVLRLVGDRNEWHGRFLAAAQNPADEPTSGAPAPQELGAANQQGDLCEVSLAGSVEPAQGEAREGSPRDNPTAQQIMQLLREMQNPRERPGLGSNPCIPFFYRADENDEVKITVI
# B4: Caspase recruitment domain-containing protein 9 (Homo sapiens), Q9H257 (parent)
# chain: MSDYENDDECWSVLEGFRVTLTSVIDPSRITPYLRQCKVLNPDDEEQVLSDPNLVIRKRKVGVLLDILQRTGHKGYVAFLESLELYYPQLYKKVTGKEPARVFSMIIDASGESGLTQLLMTEVMKLQKKVQDLTALLSSKDDFIKELRVKDSLLRKHQERVQRLKEECEAGSRELKRCKEENYDLAMRLAHQSEEKGAALMRNRDLQLEIDQLKHSLMKAEDDCKVERKHTLKLRHAMEQRPSQELLWELQQEKALLQARVQELEASVQEGKLDRSSPYIQVLEEDWRQALRDHQEQANTIFSLRKDLRQGEARRLRCMEEKEMFELQCLALRKDSKMYKDRIEAILLQMEEVAIERDQAIATREELHAQHARGLQEKDALRKQVRELGEKADELQLQVFQCEAQLLAVEGRLRRQQLETLVLSSDLEDGSPRRSQELSLPQDLEDTQLSDKGCLAGGGSPKQPFAALHQEQVLRNPHDAGLSSGEPPEKERRRLKESFENYRRKRALRKMQKGWRQGEEDRENTTGSDNTDTEGS
# partner: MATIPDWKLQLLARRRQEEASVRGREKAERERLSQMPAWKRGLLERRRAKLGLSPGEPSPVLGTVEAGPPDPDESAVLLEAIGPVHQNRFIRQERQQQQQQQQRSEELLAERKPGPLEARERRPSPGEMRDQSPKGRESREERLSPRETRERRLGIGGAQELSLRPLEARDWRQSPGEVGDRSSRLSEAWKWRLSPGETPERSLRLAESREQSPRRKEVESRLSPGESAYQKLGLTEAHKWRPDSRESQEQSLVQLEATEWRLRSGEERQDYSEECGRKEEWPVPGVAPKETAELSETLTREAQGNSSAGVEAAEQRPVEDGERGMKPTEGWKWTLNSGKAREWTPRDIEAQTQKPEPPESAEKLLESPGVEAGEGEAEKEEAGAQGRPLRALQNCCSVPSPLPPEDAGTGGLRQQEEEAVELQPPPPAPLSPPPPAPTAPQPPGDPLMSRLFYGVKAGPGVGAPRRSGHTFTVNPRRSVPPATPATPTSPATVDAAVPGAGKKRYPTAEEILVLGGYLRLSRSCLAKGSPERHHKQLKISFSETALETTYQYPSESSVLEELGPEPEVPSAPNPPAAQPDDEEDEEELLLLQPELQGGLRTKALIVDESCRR
# B5: Syntaxin-12 (Homo sapiens), Q86Y82 (parent)
# chain: MSYGPLDMYRNPGPSGPQLRDFSSIIQTCSGNIQRISQATAQIKNLMSQLGTKQDSSKLQENLQQLQHSTNQLAKETNELLKELGSLPLPLSTSEQRQQRLQKERLMNDFSAALNNFQAVQRRVSEKEKESIARARAGSRLSAEERQREEQLVSFDSHEEWNQMQSQEDEVAITEQDLELIKERETAIRQLEADILDVNQIFKDLAMMIHDQGDLIDSIEANVESSEVHVERATEQLQRAAYYQKKSRKKMCILVLVLSVIILILGLIIWLVYKTK
# B6: UV excision repair protein RAD23 homolog B (Homo sapiens), P54727 (parent)
# chain: MQVTLKTLQQQTFKIDIDPEETVKALKEKIESEKGKDAFPVAGQKLIYAGKILNDDTALKEYKIDEKNFVVVMVTKPKAVSTPAPATTQQSAPASTTAVTSSTTTTVAQAPTPVPALAPTSTPASITPASATASSEPAPASAAKQEKPAEKPAETPVATSPTATDSTSGDSSRSNLFEDATSALVTGQSYENMVTEIMSMGYEREQVIAALRASFNNPDRAVEYLLMGIPGDRESQAVVDPPQAASTGAPQSSAVAAAAATTTATTTTTSSGGHPLEFLRNQPQFQQMRQIIQQNPSLLPALLQQIGRENPQLLQQISQHQEHFIQMLNEPVQEAGGQGGGGGGGSGGIAEAGSGHMNYIQVTPQEKEAIERLKALGFPEGLVIQAYFACEKNENLAANFLLQQNFDED
# partner: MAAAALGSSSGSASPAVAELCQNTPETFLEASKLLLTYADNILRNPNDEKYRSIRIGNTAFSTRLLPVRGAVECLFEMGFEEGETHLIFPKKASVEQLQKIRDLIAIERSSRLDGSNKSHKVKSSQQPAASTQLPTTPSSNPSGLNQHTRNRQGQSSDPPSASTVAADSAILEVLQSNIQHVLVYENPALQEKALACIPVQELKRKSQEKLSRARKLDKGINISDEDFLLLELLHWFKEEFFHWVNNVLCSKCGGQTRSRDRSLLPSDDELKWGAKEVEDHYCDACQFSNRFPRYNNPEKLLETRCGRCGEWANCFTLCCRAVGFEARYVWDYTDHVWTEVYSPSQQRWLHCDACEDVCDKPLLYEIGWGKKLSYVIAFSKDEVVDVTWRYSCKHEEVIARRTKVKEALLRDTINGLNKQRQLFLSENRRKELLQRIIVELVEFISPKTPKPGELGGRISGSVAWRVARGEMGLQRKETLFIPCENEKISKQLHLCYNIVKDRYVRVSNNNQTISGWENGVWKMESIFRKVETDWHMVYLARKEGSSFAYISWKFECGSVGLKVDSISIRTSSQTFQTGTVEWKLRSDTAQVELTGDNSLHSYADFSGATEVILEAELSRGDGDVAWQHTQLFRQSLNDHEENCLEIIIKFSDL
# Variants of: B1
# Conditions: with itf2_human TCF4, P15884
# Sequence of itf2_human TCF4, P15884 (P15884 whole entry): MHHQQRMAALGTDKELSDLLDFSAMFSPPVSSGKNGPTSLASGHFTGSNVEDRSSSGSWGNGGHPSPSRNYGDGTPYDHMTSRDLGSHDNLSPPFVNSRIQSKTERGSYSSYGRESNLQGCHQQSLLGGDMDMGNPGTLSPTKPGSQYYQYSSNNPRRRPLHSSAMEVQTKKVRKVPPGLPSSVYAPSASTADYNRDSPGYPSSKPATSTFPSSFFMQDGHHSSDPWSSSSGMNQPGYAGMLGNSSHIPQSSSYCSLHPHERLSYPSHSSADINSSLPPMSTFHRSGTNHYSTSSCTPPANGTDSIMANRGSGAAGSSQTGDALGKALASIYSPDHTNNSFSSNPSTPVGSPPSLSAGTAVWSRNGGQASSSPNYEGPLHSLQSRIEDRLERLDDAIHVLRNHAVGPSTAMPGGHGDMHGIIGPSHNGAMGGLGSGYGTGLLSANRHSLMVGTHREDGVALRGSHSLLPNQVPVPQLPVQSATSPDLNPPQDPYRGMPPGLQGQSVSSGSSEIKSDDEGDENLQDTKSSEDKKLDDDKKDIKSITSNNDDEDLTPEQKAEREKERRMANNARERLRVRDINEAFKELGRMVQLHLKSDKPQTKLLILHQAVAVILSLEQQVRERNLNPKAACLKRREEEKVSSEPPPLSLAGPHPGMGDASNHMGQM
row,Variant,effect of a mutation on the interaction
1,I119M,with no effect

# Variants of: B2
# Conditions: with kxdl1_human KXD1, Q9BQD3
row,Variant,effect of a mutation on the interaction
1,A365V,with no effect
2,R480H,with no effect

# Variants of: B3
# Conditions: with goga2_human GOLGA2, Q08379
row,Variant,effect of a mutation on the interaction
1,A16V,with no effect
2,R118Q,disrupting interaction strength
3,A15T,with no effect

# Variants of: B4
# Conditions: with ppr18_human PPP1R18, Q6NYC8
row,Variant,effect of a mutation on the interaction
1,V385L,disrupting interaction strength

# Variants of: B5
# Conditions: with dtx2_human DTX2, Q86UW9
# Sequence of dtx2_human DTX2, Q86UW9 (Q86UW9 whole entry): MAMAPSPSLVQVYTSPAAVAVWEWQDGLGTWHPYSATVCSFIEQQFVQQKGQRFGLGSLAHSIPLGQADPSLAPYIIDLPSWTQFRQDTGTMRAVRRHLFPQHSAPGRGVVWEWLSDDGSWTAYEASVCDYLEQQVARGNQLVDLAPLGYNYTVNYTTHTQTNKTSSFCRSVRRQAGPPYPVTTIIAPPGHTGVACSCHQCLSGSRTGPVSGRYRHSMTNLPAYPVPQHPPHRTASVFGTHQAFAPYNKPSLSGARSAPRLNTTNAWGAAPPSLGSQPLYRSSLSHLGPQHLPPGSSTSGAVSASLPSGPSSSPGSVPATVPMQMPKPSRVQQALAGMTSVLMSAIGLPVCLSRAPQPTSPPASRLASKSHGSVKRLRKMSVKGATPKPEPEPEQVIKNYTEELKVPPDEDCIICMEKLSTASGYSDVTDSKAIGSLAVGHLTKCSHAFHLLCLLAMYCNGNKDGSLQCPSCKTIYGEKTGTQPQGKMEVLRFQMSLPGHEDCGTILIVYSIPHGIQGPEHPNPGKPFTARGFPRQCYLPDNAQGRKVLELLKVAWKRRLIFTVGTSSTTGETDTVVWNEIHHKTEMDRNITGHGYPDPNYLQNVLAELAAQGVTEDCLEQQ
row,Variant,effect of a mutation on the interaction
1,P88R,with no effect

# Variants of: B5
# Conditions: with stx4_human STX4, Q12846
# Sequence of stx4_human STX4, Q12846 (Q12846 whole entry): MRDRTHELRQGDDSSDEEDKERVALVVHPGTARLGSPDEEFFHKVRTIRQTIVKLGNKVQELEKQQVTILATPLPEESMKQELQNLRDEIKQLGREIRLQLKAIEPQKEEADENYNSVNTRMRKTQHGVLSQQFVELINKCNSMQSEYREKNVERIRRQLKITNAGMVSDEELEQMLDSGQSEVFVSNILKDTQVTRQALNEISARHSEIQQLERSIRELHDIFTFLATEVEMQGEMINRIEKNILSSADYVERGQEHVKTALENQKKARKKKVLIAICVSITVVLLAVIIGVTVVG
row,Variant,effect of a mutation on the interaction
1,P88R,with no effect

# Variants of: B6
# Conditions: with ngly1_human NGLY1, Q96IV0
row,Variant,effect of a mutation on the interaction
1,T269R,with no effect
2,P119H,with no effect
